In the supplement of paper PMC12042874:
± gives the uncertainty stated by the source.

Experiment: amyloid nucleation score (Sup35N fusion, yeast selection) (log enrichment); library NNK2; higher = more nucleation; inactive = no reads after selection
Procedure, shortened: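 Sup35N was fused to peptides of 20 random codons and expressed in psi-negative yeast, which were induced with 100 μM copper sulfate for 24 hours and then grown on medium lacking adenine and uracil for 7 days at 30°C. Plasmid inserts from input and output were sequenced on Illumina. The nucleation score is the DiMSum log enrichment of output over input reads, centred on the mode score of non-aggregating sequences. Sequences with under 100 input reads were left out, and random libraries had three technical output replicates.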

Substance	amyloid nucleation score
GIMLLSCFDCGGLSTLGHLA	7.56 ± 0.082
SFFVIGW	0.102 ± 0.17
VFFFKRLYTKVCF	inactive
FSVCHVQDCSSAGRMYYLRL	3.98 ± 0.055
MIVFLYRLY	-0.061 ± 0.39
NYMRYTYHSMCVLWFTVGEC	0.864 ± 0.41
VVPFIKTRCNPV	-0.829 ± 0.33
QNGTERGFFCSKLNRSVTLL	0.358 ± 0.65
MFYLS	-0.476 ± 0.37
SRIFVLYYSWDAWNSWGDVV	0.602 ± 0.6
CTSCERSLAKRLQGWHIF	-1.09 ± 0.63
YNGMAHGCHVGASSRRLE	0.117 ± 0.32
NNDDQSFCAWVFNDVQ	0.056 ± 0.6
ILISIISFTKSCNISISLEW	-0.603 ± 1.1
VLSNKFI	inactive
TSDITAVFNSFLKFR	-0.744 ± 0.74
GWSITGSWFHNMAILLICFR	3.38 ± 0.075
SLETFNVTPCRDVT	-0.633 ± 1.1
YITFLVWFQNFGYTGHD	7.162 ± 0.062
IATTATSVGSVR	0.924 ± 0.25
QTMMTTRKCSPLRLVLSQRL	-0.161 ± 1.1
MRMYLGVDSENRASDMGRTR	1.03 ± 0.36
AGSSS	-0.561 ± 0.63
TCDWVVLIYPSSGCCRLEWR	0.99 ± 0.36
VLASWSDFKSRGRGNSSVSG	1.24 ± 0.33

Substance	amyloid nucleation score
LAMMELYVSRETGLWYM	-0.503 ± 0.32
HHRGMIMLHNINYLRSFNAT	-0.465 ± 0.44
CTMYLALRGVW	4.56 ± 0.056
YYMKVVMVDTQTQV	inactive
RDVVSLGLQEGNSRMRHTGG	0.82 ± 0.23
RDFYRWNMQ	3.8 ± 0.069
RIVMKRRFYCKSWSLIVHPG	-0.826 ± 0.28
LILNIRTTGCGYFC	8.818 ± 0.049
LFLSGKEIPMNVFTIVCTDP	inactive
TCLTGKAVSVDHS	inactive
IEPSHFNGNSASWV	-0.184 ± 0.63
DEGKA	-0.507 ± 0.42
WIDLNRRRREAL	-0.125 ± 0.34
TFYIYGIHSLA	-0.917 ± 0.34
GVLRENGN	0.284 ± 1.1
SGRCNSN	-0.63 ± 0.79
KHFAIW	-0.08 ± 1
SLTYRYVHVLC	5.86 ± 0.04
GYMRSLGHYSADVMEYLYNW	0.052 ± 0.45
SSYLTIPIIRVFLR	0.126 ± 0.8
HTHTWT	1.31 ± 0.38
AHFQYRGNRAFQVWNYCGKY	2.55 ± 0.12
NIFMLTLGCGCQAFCSVIMT	1.44 ± 0.17
LSKLYTLVRNV	-0.576 ± 0.63
TYRIGYMNQCTSR	-0.215 ± 0.35

Substance	amyloid nucleation score
MTYCCITSVPRGRIQNDAVR	inactive
VKLTLRVLLMSRTETHTVCR	0.494 ± 0.44
IRYWLNERMVSDRRTVTGGV	7.47 ± 0.077
HSLRGTWMGMVSASCTPVDM	4.27 ± 0.057
LRLIDNYMGSSRMMS	inactive
LCNNPNGGIGQLKVL	0.515 ± 0.64
LPVREALMRKWMVQLLVFVS	2.05 ± 0.1
TDIKNRHILSNPWIRLYFLI	-1.16 ± 0.62
IQLMEFWLSGGLTVIMGILR	-0.971 ± 0.61
GITFPGFI	0.115 ± 0.28
LSSPLNLQHVFPLTWMYLC	-0.742 ± 1.1
SISSLLLRLRGTV	-0.305 ± 0.79
RFGFRSGPTSSRMWYSFLEF	3.15 ± 0.11
RLTQCLVHRPYPV	0.572 ± 0.3
LFRDTSQLGNSVIVTYYM	9.029 ± 0.052
NLRLDIAFSPWPRSGYNSGS	0.292 ± 0.64
QNDLIWSSW	-1.32 ± 0.49
YCLVTRLHR	0.185 ± 0.8
DLPYSSVIRKYMSKMWLHMN	0.218 ± 0.36
SKCWESREQGYMYMEWGFEG	0.219 ± 1
TSRDFYRNAGIARFAYYNSP	-1.15 ± 0.23
DGNFHNFLLCNNEMFREMDC	2.63 ± 0.13
ESSLDCMRDANNKAAWVEVV	1.05 ± 0.23
GLSNLR	-0.114 ± 1
KCLSRNPHSIDFMRNARYKD	-0.92 ± 0.33

Substance	amyloid nucleation score
NQCAVQGLYRRRMVHDRQED	-0.52 ± 0.78
QYRCGRRLVQRSEVVIVPVC	inactive
ALFRPEYRFM	2.64 ± 0.13
DMRTIGEHCW	1.02 ± 0.52
FRYRIYGGHLTINRIIYSLV	-0.702 ± 1.1
SVYRGASKVSRCRNVKTGR	0.132 ± 0.32
LLRMLSYR	0.138 ± 1.1
IRMLLYCMESELKGASVEAG	-0.037 ± 0.5
LHWGEFEYCILCARGDIKR	-0.755 ± 0.5
DLMDVEGLSGPPLRSMQVLK	5.003 ± 0.05
ICKRIFGRYRYLSSEVDCVS	-1.54 ± 0.55
MFMTVRWNVAINLELFTVID	-0.34 ± 0.39
TGLDIGLGWLYMYRGATLAI	0.542 ± 0.35
WCSCQPSFSKKHGEFYNLFL	9.215 ± 0.032
LRTVDVAR	-0.654 ± 0.55
LVGLISRNKVVRTGIENNKD	-0.059 ± 0.55
SFWLTMMCNVGTMALVLSNL	-0.065 ± 0.31
NKVVGNTNTFLEND	3.91 ± 0.094
GDHRFMSVVYVFYQSLNGVV	3.41 ± 0.049
YICMLLDKPRFLSRSSRSLV	inactive
SRFVLRFSRGLEGRTSSDMR	0.294 ± 0.42
LSLLRFLNCMRYCLCIGLAS	4.14 ± 0.093
KVDQGMQSSLRKCPFHQIKP	1.62 ± 0.32
LVLIIK	5.96 ± 0.075
DWRFRSGISISKYLVINLGD	5.79 ± 0.063

Substance	amyloid nucleation score
YMERIYRWYSQCNRCQVRLW	-0.644 ± 0.54
CLRILGDISSFRGMRHTTLH	0.042 ± 1.1
FKPYF	inactive
LFKDMYSDLKHILNCGFQTT	-0.711 ± 0.45
HCSDFDLVSAKWSSQWARNG	1.13 ± 0.4
PSNKYSDVPSNAQSGFAWYG	0.56 ± 0.57
FRLILWPIDCAINTNRRCNR	4.38 ± 0.051
RIVCSNSWR	-0.113 ± 1.1
RVLREKCSIGVAGKYSY	-0.512 ± 0.49
LHWKWQMNCLWSEGSHCFNN	0.116 ± 0.33
DLAFNFASWLCRAKFNGSRC	5.04 ± 0.09
RLYKSARVASHVDLGCTFRC	1.35 ± 0.18
VVDCKGVLLAFSNRIFGWTT	-0.064 ± 0.76
VSRGNAGWS	3.6 ± 0.075
LLCNGVSGGQTNQDIFHMPC	inactive
RPNNLDMVH	0.619 ± 0.57
DYVNGGCLKFKNWRWKFSLS	-0.349 ± 0.48
LNTSFLMV	-1.05 ± 0.49
SPVICRVRGGLFINMSEYNV	inactive
MIHQIELNDIGWVLTTFCNE	-0.536 ± 1
SSGFQNSSTNGTDAQS	0.101 ± 0.76
LYIMDLFSTAWFDMLYVKGR	-1.45 ± 0.78
YFRYMLW	4.16 ± 0.1
TVYYNQLSD	-0.982 ± 0.76
CLNQSLRNTSWKHMAEPKKR	3.82 ± 0.12

Substance	amyloid nucleation score
CWNACSLRLNDGAGDPGWRD	0.36 ± 0.22
EIFIPCEWGIVIHQGHAVSQ	4.46 ± 0.076
VWGHWPSRFSQQSRCN	0.185 ± 0.5
PRDRLSSGPLQWHGFIIGYV	0.676 ± 0.23
QYSTSV	-0.548 ± 0.61
AMMFDVFRYLRESVISMCKG	0.367 ± 0.54
CGNISQVKEDLRMTTLIFRV	inactive
RIFVIGNFVDCWLRLWT	0.256 ± 0.65
DLSLESLRSNEVEAVNMFVF	inactive
VVVRGVQAGCGKPPVSRLRI	0.838 ± 0.23
LVDILLMMYWMWQ	0.373 ± 0.45
LQVLSFSLWFMVRCMKLLPT	-0.286 ± 0.65
IYYGSRISPTWAGRLLCGER	-0.185 ± 0.44
QLVLT	1.14 ± 0.21
LNGYNYATCVLSPFFNE	-0.497 ± 0.76
CFRKFRMEEPLGIRFSHLDT	-0.345 ± 0.21
HCSVSLTFFVLQTPL	4.79 ± 0.069
CSEVLRTFGKARHTEAR	0.501 ± 0.2
IDCWCSVSWATAL	-0.4 ± 0.64
GIHLVFGFMEWRVMSTLKVS	-0.584 ± 0.64
SVFLSKDIKGVNQCGGLWLS	0.296 ± 0.25
THVLIFFMVLDLGPFKTGAD	-0.441 ± 1.1
LSIRYLVYEPN	0.27 ± 0.36
PPNRVNGNW	0.853 ± 0.57
SEFYIRLQYNNVVIVDLFEV	-0.701 ± 0.63

Substance	amyloid nucleation score
DPTGIGWIKEQSLVCCGGVS	2.84 ± 0.081
AQWCEGVVSLQLSWVVCVEG	1.16 ± 0.34
FYLRFNTFVSDTNCLTDWLA	3.46 ± 0.087
LYEMDSKC	-0.603 ± 1.1
NRCLGIT	0.231 ± 0.48
EPTFWPRW	0.626 ± 0.35
WKSLTGYIRLIFRNFWTSHD	inactive
CARSWLRVLGTSPEKMKG	0.627 ± 0.74
NMIYYMFEYAWPCIVER	7.37 ± 0.08
LMYTFVGCSINVCFGGSGCL	8.873 ± 0.034
DARKNVDRSPSSLSEKVLSL	0.642 ± 0.34
LNSQSVFKC	-0.967 ± 0.55
LVVLNYGVIHNMNSWPWRWG	9.861 ± 0.047
FDVLMRSTGRANKKFLVCRQ	-0.033 ± 0.38
FLCTNGGPLALSNGWVTSGE	0.274 ± 0.62
KVGKDTVYKGQSIQSVYLRC	-0.41 ± 0.49
RSMSRRGFLCLHR	0.948 ± 0.67
SSPAACYMR	-1.69 ± 1.1
DIYFGDQNDCLKR	-1.17 ± 0.64
RAVTRVKHICLSATRSCDVE	0.523 ± 0.21
TYFAEIMNTPLRPSARHEAR	1.72 ± 0.33
LSYRTCYRNMP	0.328 ± 0.46
FNLLEVTRPPMRMMGMM	2.3 ± 0.076
LCGWHD	0.733 ± 0.47
